Source: the RNAGym collection of RNA variant scans (doi:10.1073/pnas.2313332121)
This sample holds only a part of the variants without activity.

B1: TPR 5TU (parent)
chain: GGAUCUUCUCGAUCUAACAAAAAAGACAAAUCUGCCACAAAGCUUGAGAGCAUCUUCGGAUGCAGAGGCGGCAGCCUUCGGUGGCGCGAUAGCGCCAACGUUCUCAACUAUGACACGCAAAACGCGUGCUCCGUUGAAUGGAGUUUAUCAUG

Variants of: B1
Test: polymerase ribozyme fitness, log enrichment relative to wild type (log ratio); higher = more active; in vitro selection for triplet polymerase activity
How it was run: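 Mutant libraries for each subunit of a heterodimeric triplet polymerase ribozyme were made by PCR and then transcribed. Each library underwent one round of in vitro selection in triplicate: annealing with a biotinylated primer, the partner subunit and triplets, frozen incubation at −7 °C, gel excision of extended constructs, streptavidin-bead capture and RT-PCR. Input and output libraries were Illumina-sequenced, and only genotypes with ≥10 input reads and ≥1 read per output were kept. Fitness is the logarithm, base 2, of genotype enrichment over wild-type enrichment, computed from inverse-variance-weighted replicate averages.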

Question: With A19G G83C C87U U101G as the variant, how does the “polymerase ribozyme fitness (log ratio)” value read?
Answer: Its value is at most -4.2.

Question: With A17U A40G C54U G83A A91C G126C as the variant, how does the “polymerase ribozyme fitness (log ratio)” value read?
Answer: The value was at most -4.2.

Question: With A19C A20C U148A as the variant, how does the “polymerase ribozyme fitness (log ratio)” value read?
Answer: Its value is -3.05.

Question: Which “polymerase ribozyme fitness (log ratio)” value does the source give for A19C G80A C85G here?
Answer: The value was -0.89.

Question: For A19U U53C C87G, which “polymerase ribozyme fitness (log ratio)” value is on record?
Answer: The value was at most -4.2.

Question: With A20C A37C A40C G58C C95U as the variant, how does the “polymerase ribozyme fitness (log ratio)” value read?
Answer: The value was -4.12.

Question: Which “polymerase ribozyme fitness (log ratio)” value does the source give for C18U A40G C57G C95U here?
Answer: The value was -3.91.

Question: Which “polymerase ribozyme fitness (log ratio)” value does the source give for A20C A22C C43U G83C here?
Answer: Its value is at most -4.2.

Question: For C18U G62A G67A U77G C87A U101C C123U G136A, which “polymerase ribozyme fitness (log ratio)” value is on record?
Answer: The value was at most -4.2.

Question: With C18U C87U C99U A119G C125G U135G as the variant, how does the “polymerase ribozyme fitness (log ratio)” value read?
Answer: The value was at most -4.2.

Question: For A19U G25A U61A, which “polymerase ribozyme fitness (log ratio)” value is on record?
Answer: Its value is at most -4.2.

Question: For C18U C108U, which “polymerase ribozyme fitness (log ratio)” value is on record?
Answer: Its value is -3.57.

Question: Which “polymerase ribozyme fitness (log ratio)” value does the source give for C18G U53A U139C here?
Answer: Its value is at most -4.2.

Question: Which “polymerase ribozyme fitness (log ratio)” value does the source give for A19G G84A here?
Answer: The value was -1.52.

Question: With A19G G84U as the variant, how does the “polymerase ribozyme fitness (log ratio)” value read?
Answer: Its value is -2.39.

Question: For A19U A21C C54U U134A, which “polymerase ribozyme fitness (log ratio)” value is on record?
Answer: Its value is at most -4.2.

Question: For A17U A37C C93G C96A, which “polymerase ribozyme fitness (log ratio)” value is on record?
Answer: The value was at most -4.2.

Question: Which “polymerase ribozyme fitness (log ratio)” value does the source give for A19U U33A G34A C79A C118U C125A C132U G133A A142C U148G here?
Answer: The value was at most -4.2.

Question: Which “polymerase ribozyme fitness (log ratio)” value does the source give for C18U A37U G83A C87U U90G A98C C116A G133U A137C here?
Answer: Its value is at most -4.2.

Question: For A19C C43U C76A G81C A91G A106U A121C G136U A142G, which “polymerase ribozyme fitness (log ratio)” value is on record?
Answer: Its value is at most -4.2.

Question: For A19U U55A C63A A142U U148C, which “polymerase ribozyme fitness (log ratio)” value is on record?
Answer: The value was at most -4.2.

Question: With A17U A40U C123U as the variant, how does the “polymerase ribozyme fitness (log ratio)” value read?
Answer: Its value is -0.36.

Question: With A19C A60G C96U as the variant, how does the “polymerase ribozyme fitness (log ratio)” value read?
Answer: The value was 0.412.

Question: With A17U A24U G83C as the variant, how does the “polymerase ribozyme fitness (log ratio)” value read?
Answer: The value was 0.0208.

Question: For A19C G126U U145A, which “polymerase ribozyme fitness (log ratio)” value is on record?
Answer: The value was -0.56.

Question: With C18G U55A A98G A106G G112U A120U as the variant, how does the “polymerase ribozyme fitness (log ratio)” value read?
Answer: The value was -3.87.

Question: With A17U G81C U102G U130G G141A as the variant, how does the “polymerase ribozyme fitness (log ratio)” value read?
Answer: The value was at most -4.2.

Question: For A19U A91C C129A, which “polymerase ribozyme fitness (log ratio)” value is on record?
Answer: The value was at most -4.2.

Question: With A19U G68C C93G C131G as the variant, how does the “polymerase ribozyme fitness (log ratio)” value read?
Answer: The value was at most -4.2.

Question: With A17U A47G C57U G74C U77C U82A G83A U102G A150G as the variant, how does the “polymerase ribozyme fitness (log ratio)” value read?
Answer: Its value is at most -4.2.

Question: Which “polymerase ribozyme fitness (log ratio)” value does the source give for C18G G84U G117U A121G here?
Answer: Its value is -2.06.

Question: For C18U G65U A73G C85U G141C, which “polymerase ribozyme fitness (log ratio)” value is on record?
Answer: The value was at most -4.2.

Question: With A19G C57A G65A as the variant, how does the “polymerase ribozyme fitness (log ratio)” value read?
Answer: The value was -2.01.

Question: With A17U A30U U55C C116U as the variant, how does the “polymerase ribozyme fitness (log ratio)” value read?
Answer: The value was -4.01.

Question: With A19C C36U G59U A60G C93U U104G as the variant, how does the “polymerase ribozyme fitness (log ratio)” value read?
Answer: The value was -3.23.

Question: With A19U G92C as the variant, how does the “polymerase ribozyme fitness (log ratio)” value read?
Answer: The value was -1.68.

Question: For A19C G92U, which “polymerase ribozyme fitness (log ratio)” value is on record?
Answer: The value was 0.745.

Question: Which “polymerase ribozyme fitness (log ratio)” value does the source give for A19C G92A here?
Answer: Its value is -2.38.

Question: With A19C A21C A26C U44A C57A U61A G68A G86A C118U as the variant, how does the “polymerase ribozyme fitness (log ratio)” value read?
Answer: Its value is at most -4.2.

Question: Which “polymerase ribozyme fitness (log ratio)” value does the source give for C18A U55G C85A C118U here?
Answer: Its value is -2.09.

Question: For A19U G143U, which “polymerase ribozyme fitness (log ratio)” value is on record?
Answer: Its value is -2.25.

Question: Which “polymerase ribozyme fitness (log ratio)” value does the source give for A19U C35G C43A U56A G58U C85U A113G A122C U151A here?
Answer: Its value is at most -4.2.

Question: For C18G C96U, which “polymerase ribozyme fitness (log ratio)” value is on record?
Answer: The value was -1.12.

Question: For A19G C27U, which “polymerase ribozyme fitness (log ratio)” value is on record?
Answer: Its value is -1.17.

Question: Which “polymerase ribozyme fitness (log ratio)” value does the source give for C18U A20G C76A U77A G92U U101A U134G here?
Answer: The value was at most -4.2.

Question: For C18U G81A C87U A97U, which “polymerase ribozyme fitness (log ratio)” value is on record?
Answer: The value was -1.14.

Question: With C18G G86A C87A A91C A120C as the variant, how does the “polymerase ribozyme fitness (log ratio)” value read?
Answer: The value was at most -4.2.

Question: Which “polymerase ribozyme fitness (log ratio)” value does the source give for A19U A26C G46U C93A C95G C108A U151G here?
Answer: The value was at most -4.2.

Question: For C18G A29U U31G U44C A49U C76U A98G C118A, which “polymerase ribozyme fitness (log ratio)” value is on record?
Answer: Its value is at most -4.2.

Question: With A17U A21U U55A A91C C95G A98U C108G as the variant, how does the “polymerase ribozyme fitness (log ratio)” value read?
Answer: Its value is at most -4.2.

Question: With A19U G94C U145G as the variant, how does the “polymerase ribozyme fitness (log ratio)” value read?
Answer: The value was -0.324.

Question: Which “polymerase ribozyme fitness (log ratio)” value does the source give for C18U G86A G140A here?
Answer: The value was at most -4.2.

Question: Which “polymerase ribozyme fitness (log ratio)” value does the source give for C18U A30C C32U A39U A49C U53G C93G C96U U127G U139G G140U A147C U151A here?
Answer: The value was at most -4.2.

Question: With C18A A20G G46C U56C G94C C105G A122U as the variant, how does the “polymerase ribozyme fitness (log ratio)” value read?
Answer: Its value is -0.89.

Question: Which “polymerase ribozyme fitness (log ratio)” value does the source give for A17U C96G A142U U146A here?
Answer: The value was -2.11.

Question: Which “polymerase ribozyme fitness (log ratio)” value does the source give for C18U U31G A37C C54U A91C U134C U146C here?
Answer: Its value is at most -4.2.

Question: For A17U A52U A142C, which “polymerase ribozyme fitness (log ratio)” value is on record?
Answer: The value was -3.3.

Question: For C18U G84A, which “polymerase ribozyme fitness (log ratio)” value is on record?
Answer: The value was -0.579.

Question: For A19C A41G C131A A138U, which “polymerase ribozyme fitness (log ratio)” value is on record?
Answer: Its value is at most -4.2.

Question: With A19U G34A A47U C76A C116U as the variant, how does the “polymerase ribozyme fitness (log ratio)” value read?
Answer: Its value is at most -4.2.

Question: With C18A C85A G112C C116U as the variant, how does the “polymerase ribozyme fitness (log ratio)” value read?
Answer: Its value is at most -4.2.

Question: With A19C A30U G50A A73C G80U G86A C118A U145G as the variant, how does the “polymerase ribozyme fitness (log ratio)” value read?
Answer: Its value is at most -4.2.

Question: For A19G A41C, which “polymerase ribozyme fitness (log ratio)” value is on record?
Answer: Its value is -1.52.

Question: With A19G A26U U31C G92A C96G C103U as the variant, how does the “polymerase ribozyme fitness (log ratio)” value read?
Answer: The value was at most -4.2.

Question: For A19U G58C C87U C95U C116G, which “polymerase ribozyme fitness (log ratio)” value is on record?
Answer: The value was -1.52.

Question: For C18G U55A, which “polymerase ribozyme fitness (log ratio)” value is on record?
Answer: The value was -0.923.

Question: With A20C A23U A28U G65U A73U G86U as the variant, how does the “polymerase ribozyme fitness (log ratio)” value read?
Answer: The value was at most -4.2.

Question: For A20C A52C C79G, which “polymerase ribozyme fitness (log ratio)” value is on record?
Answer: Its value is at most -4.2.

Question: For C18U G25C C43G C99A, which “polymerase ribozyme fitness (log ratio)” value is on record?
Answer: The value was at most -4.2.

Question: With A19G G68U C79G G84A G86A U135C G140U as the variant, how does the “polymerase ribozyme fitness (log ratio)” value read?
Answer: The value was at most -4.2.

Question: Which “polymerase ribozyme fitness (log ratio)” value does the source give for A19U A28G G50A G68A G94U here?
Answer: The value was at most -4.2.

Question: Which “polymerase ribozyme fitness (log ratio)” value does the source give for A19C G59A U144C here?
Answer: Its value is 1.14.

Question: With A19G G48A C75G C93A as the variant, how does the “polymerase ribozyme fitness (log ratio)” value read?
Answer: Its value is at most -4.2.

Question: For A17U A40G G94C C132U, which “polymerase ribozyme fitness (log ratio)” value is on record?
Answer: Its value is -4.03.

Question: Which “polymerase ribozyme fitness (log ratio)” value does the source give for A19C U56A U104A A119U here?
Answer: Its value is -0.197.

Question: With A19U A60G C72U G143U as the variant, how does the “polymerase ribozyme fitness (log ratio)” value read?
Answer: Its value is at most -4.2.

Question: For A20C A47U U101A A122U, which “polymerase ribozyme fitness (log ratio)” value is on record?
Answer: The value was -0.358.

Question: For A19U C114G, which “polymerase ribozyme fitness (log ratio)” value is on record?
Answer: The value was -3.52.

Question: Which “polymerase ribozyme fitness (log ratio)” value does the source give for C18G A28U A29U A66G G67C C96U A106C here?
Answer: Its value is at most -4.2.

Question: For A17U G48A C51G U55G C96G C105U C118U G136U G141U, which “polymerase ribozyme fitness (log ratio)” value is on record?
Answer: Its value is at most -4.2.

Question: Which “polymerase ribozyme fitness (log ratio)” value does the source give for C18U A52G G83C U146G here?
Answer: The value was -2.39.

Question: With A19G A28G C38U A49C G58A G65A C76A C93G as the variant, how does the “polymerase ribozyme fitness (log ratio)” value read?
Answer: The value was at most -4.2.

Question: Which “polymerase ribozyme fitness (log ratio)” value does the source give for A19U A23U U90G C105A here?
Answer: The value was at most -4.2.
